Measurements reported in IntAct's records for PubMed 16968782.

B1: Nephrin (Homo sapiens), O60500-1 (parent)
chain: MALGTTLRASLLLLGLLTEGLAQLAIPASVPRGFWALPENLTVVEGASVELRCGVSTPGSAVQWAKDGLLLGPDPRIPGFPRYRLEGDPARGEFHLHIEACDLSDDAEYECQVGRSEMGPELVSPRVILSILVPPKLLLLTPEAGTMVTWVAGQEYVVNCVSGDAKPAPDITILLSGQTISDISANVNEGSQQKLFTVEATARVTPRSSDNRQLLVCEASSPALEAPIKASFTVNVLFPPGPPVIEWPGLDEGHVRAGQSLELPCVARGGNPLATLQWLKNGQPVSTAWGTEHTQAVARSVLVMTVRPEDHGAQLSCEAHNSVSAGTQEHGITLQVTFPPSAIIILGSASQTENKNVTLSCVSKSSRPRVLLRWWLGWRQLLPMEETVMDGLHGGHISMSNLTFLARREDNGLTLTCEAFSEAFTKETFKKSLILNVKYPAQKLWIEGPPEGQKLRAGTRVRLVCLAIGGNPEPSLMWYKDSRTVTESRLPQESRRVHLGSVEKSGSTFSRELVLVTGPSDNQAKFTCKAGQLSASTQLAVQFPPTNVTILANASALRPGDALNLTCVSVSSNPPVNLSWDKEGERLEGVAAPPRRAPFKGSAAARSVLLQVSSRDHGQRVTCRAHSAELRETVSSFYRLNVLYRPEFLGEQVLVVTAVEQGEALLPVSVSANPAPEAFNWTFRGYRLSPAGGPRHRILSSGALHLWNVTRADDGLYQLHCQNSEGTAEARLRLDVHYAPTIRALQDPTEVNVGGSVDIVCTVDANPILPGMFNWERLGEDEEDQSLDDMEKISRGPTGRLRIHHAKLAQAGAYQCIVDNGVAPPARRLLRLVVRFAPQVEHPTPLTKVAAAGDSTSSATLHCRARGVPNIVFTWTKNGVPLDLQDPRYTEHTYHQGGVHSSLLTIANVSAAQDYALFTCTATNALGSDQTNIQLVSISRPDPPSGLKVVSLTPHSVGLEWKPGFDGGLPQRFCIRYEALGTPGFHYVDVVPPQATTFTLTGLQPSTRYRVWLLASNALGDSGLADKGTQLPITTPGLHQPSGEPEDQLPTEPPSGPSGLPLLPVLFALGGLLLLSNASCVGGVLWQRRLRRLAEGISEKTEAGSEEDRVRNEYEESQWTGERDTQSSTVSTTEAEPYYRSLRDFSPQLPPTQEEVSYSRGFTGEDEDMAFPGHLYDEVERTYPPSGAWGPLYDEVQMGPWDLHWPEDTYQDPRGIYDQVAGDLDTLEPDSLPFELRGHLV
B2: Nephrin (Homo sapiens), O60500-1 (parent)
chain: B1 chain
partner: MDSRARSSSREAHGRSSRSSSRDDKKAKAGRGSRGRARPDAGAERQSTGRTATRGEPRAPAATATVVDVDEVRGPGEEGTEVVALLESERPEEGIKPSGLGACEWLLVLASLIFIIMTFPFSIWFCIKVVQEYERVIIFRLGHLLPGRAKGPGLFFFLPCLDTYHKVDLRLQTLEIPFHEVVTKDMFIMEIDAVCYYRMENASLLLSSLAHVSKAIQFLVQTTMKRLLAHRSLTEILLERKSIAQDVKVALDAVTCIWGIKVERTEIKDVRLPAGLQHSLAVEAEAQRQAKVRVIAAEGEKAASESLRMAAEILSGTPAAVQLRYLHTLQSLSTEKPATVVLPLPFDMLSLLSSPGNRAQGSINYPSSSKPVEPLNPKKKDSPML

Variants of: B1
Settings: with arrb2_human ARRB2, P32121
arrb2_human ARRB2, P32121, sequence (P32121 whole entry): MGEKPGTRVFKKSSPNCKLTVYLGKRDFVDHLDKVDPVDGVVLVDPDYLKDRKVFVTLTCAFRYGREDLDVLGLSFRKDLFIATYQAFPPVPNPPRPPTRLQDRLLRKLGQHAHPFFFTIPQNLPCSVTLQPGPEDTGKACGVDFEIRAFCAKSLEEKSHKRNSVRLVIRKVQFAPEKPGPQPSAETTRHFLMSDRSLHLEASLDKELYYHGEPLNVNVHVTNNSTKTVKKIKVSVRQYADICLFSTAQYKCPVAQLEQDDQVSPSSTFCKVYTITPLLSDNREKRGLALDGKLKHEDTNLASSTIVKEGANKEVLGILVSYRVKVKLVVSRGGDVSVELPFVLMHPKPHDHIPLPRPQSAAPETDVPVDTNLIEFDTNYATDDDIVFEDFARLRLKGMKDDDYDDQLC

| Variant | effect of a mutation on the interaction |
| --- | --- |
| Y1193A | decreasing interaction strength |

Variants of: B2
Settings: with podo_mouse Nphs2, Q91X05

| Variant | effect of a mutation on the interaction |
| --- | --- |
| Y1193F | disrupting interaction strength |
